T1: HsQSOX1Erv (carboxy-terminal fragment of human QSOX1, psi-Erv and Erv domains) (human, UniProt O00391 286-546, limits assumed, bound FAD cofactor)
T1 construct: domain: carboxy-terminal fragment, HsQSOX1Erv (two Erv-fold domains); also called HsQSOX1 carboxy-terminal fragment
T1 sequence (looked up): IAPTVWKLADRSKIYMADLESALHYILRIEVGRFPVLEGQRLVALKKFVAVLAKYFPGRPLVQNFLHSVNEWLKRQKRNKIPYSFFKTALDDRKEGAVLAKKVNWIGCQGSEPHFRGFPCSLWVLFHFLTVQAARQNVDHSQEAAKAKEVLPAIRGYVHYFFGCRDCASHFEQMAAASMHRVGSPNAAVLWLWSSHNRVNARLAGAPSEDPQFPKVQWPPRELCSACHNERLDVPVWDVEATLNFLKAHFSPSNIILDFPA

T2: Recombinant human QSOX1 (HsQSOX1 33-546) (human, UniProt O00391 33-546, bound FAD cofactor)
T2 sequence: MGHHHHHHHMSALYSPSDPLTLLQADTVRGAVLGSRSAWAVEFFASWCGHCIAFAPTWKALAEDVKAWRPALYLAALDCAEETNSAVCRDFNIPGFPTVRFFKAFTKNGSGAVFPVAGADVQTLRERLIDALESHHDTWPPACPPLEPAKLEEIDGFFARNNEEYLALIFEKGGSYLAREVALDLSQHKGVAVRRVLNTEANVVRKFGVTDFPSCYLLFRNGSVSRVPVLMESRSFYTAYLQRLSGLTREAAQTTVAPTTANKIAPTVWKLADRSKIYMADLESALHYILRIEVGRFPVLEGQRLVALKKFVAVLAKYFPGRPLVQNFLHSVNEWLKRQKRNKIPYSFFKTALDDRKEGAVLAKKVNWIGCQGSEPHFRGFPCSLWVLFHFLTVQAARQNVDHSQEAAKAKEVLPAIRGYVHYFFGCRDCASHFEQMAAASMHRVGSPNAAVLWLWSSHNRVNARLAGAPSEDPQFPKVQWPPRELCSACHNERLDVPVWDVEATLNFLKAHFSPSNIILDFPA


Legend:
[1] = molecular target: T1, HsQSOX1Erv (carboxy-terminal fragment …); assay: ELISA
[2] = molecular target: T2, Recombinant human QSOX1 (HsQSOX1 33-546); assay: cell-based or functional assay
[3] = molecular target: T2, Recombinant human QSOX1 (HsQSOX1 33-546); assay: oxygen consumption assay, 25 nM HsQSOX1, 1-250 nM MAb492.1, 200 µM DTT, fit to a tight-binding inhibitor model
Procedure: A Clarke-type oxygen electrode (Hansatech Instruments) was used to monitor changes in dissolved oxygen concentrations as a measure of HsQSOX1 activity. […] Reactions were started by injection of dithiothreitol (DTT) to a concentration of 200 μM in the electrode reaction chamber. […] The ratios of the initial rates of HsQSOX1 in the presence and absence of inhibitor were plotted as a function of inhibitor concentration.
This assay allows direct determination of initial velocities and not just degree of activity.

[4] = molecular target: T2, Recombinant human QSOX1 (HsQSOX1 33-546); assay: calculated from the IC50 of the rdRNase oxidation colorimetric assay with the equation for competitive inhibition
Procedure: Reactions of 100 μL volume were conducted in 96 well plates (Nunc). Reduced and denatured RNaseA (Sigma) was used as a model substrate and was prepared as follows. Ten mg RNase was dissolved in 1 ml of 20 mM phosphate buffer, pH 6.5, 6 M GuHCl, and 100 mM DTT, and incubated at 37° C. for 1 hr. The protein was desalted on a PD-10 column (GE Healthcare) equilibrated with DDW, and its thiol content was determined by DTNB absorbance at 412 nm. 50 nM recombinant HsQSOX1 and various concentrations of monoclonal antibody clones were incubated for 30 min at RT. Reactions were initiated with the addition of 200 μM RNase thiols and were quenched after 25 min with 1 mM DTNB. Absorbance was measured at 405 nm in a microplate reader.

binding result [1] | IC50, inhibition of rdRNase oxidation (DTNB colorimetric assay), 50 nM HsQSOX1 [2] [nM] | IC50, inhibition of rdRNase oxidation (DTNB colorimetric assay), 250 nM HsQSOX1 [2] [nM] | Ki [3] [nM] | Ki [4] [nM] | Binder
no binding | 60 | 240 | 1 |  | MAb492.1 (antibody, V domains shown, also called anti-QSOX1 monoclonal antibody; QSOX1-specific monoclonal antibody) VH: QVQLKQSGPGLVAPSQSLSITCTVSGFSLTGYGVNWVRQSPGKGLEWLGMIWGDGRTDYKSALKSRLSITKDNSKSQVFLKMNSLQTDDTARYFCASDYYGSGSFAYWGQGTLVTVSA VL: DVVMTQTHKFMSTSVGDRVSITCKASQDVSTAVAWYQQKSGQSPKLLIHSASYRYTGVPDRFTGSGSGTDFTFTISSVQAEDLAVYYCQQHYSIPLTFGAGTKLELK
 | 100 |  |  |  | Fab492.1 (Fab fragment of MAb492.1) (Fab, V domains shown) VH: QVQLKQSGPGLVAPSQSLSITCTVSGFSLTGYGVNWVRQSPGKGLEWLGMIWGDGRTDYKSALKSRLSITKDNSKSQVFLKMNSLQTDDTARYFCASDYYGSGSFAYWGQGTLVTVSA VL: DVVMTQTHKFMSTSVGDRVSITCKASQDVSTAVAWYQQKSGQSPKLLIHSASYRYTGVPDRFTGSGSGTDFTFTISSVQAEDLAVYYCQQHYSIPLTFGAGTKLELK
 | 250 |  |  | 130 | scFv492.1 (scFv, also called single chain antibody fragment of MAb492.1; not shown: thrombin-cleavable His6-tag at the amino terminus) scFv: QVQLKQSGPGLVAPSQSLSITCTVSGFSLTGYGVNWVRQSPGKGLEWLGMIWGDGRTDYKSALKSRLSITKDNSKSQVFLKMNSLQTDDTARYFCASDYYGSGSFAYWGQGTLVTVSAGGGGSGGGGSGGGGSDVVMTQTHKFMSTSVGDRVSITCKASQDVSTAVAWYQQKSGQSPKLLIHSASYRYTGVPDRFTGSGSGTDFTFTISSVQAEDLAVYYCQQHYSIPLTFGAGTKLELK

From patent US20150110786A1 (YEDA RESEARCH AND DEVELOPMENT, published 2015)
